Source: PMC2172734

Target: Abi1, endogenous in mouse fibroblasts (mouse (endogenous in MEFs)) (UniProt Q8CBW3)
Experiment: co-IP

Sequence of UniProt Q8CBW3 (Q8CBW3 whole entry): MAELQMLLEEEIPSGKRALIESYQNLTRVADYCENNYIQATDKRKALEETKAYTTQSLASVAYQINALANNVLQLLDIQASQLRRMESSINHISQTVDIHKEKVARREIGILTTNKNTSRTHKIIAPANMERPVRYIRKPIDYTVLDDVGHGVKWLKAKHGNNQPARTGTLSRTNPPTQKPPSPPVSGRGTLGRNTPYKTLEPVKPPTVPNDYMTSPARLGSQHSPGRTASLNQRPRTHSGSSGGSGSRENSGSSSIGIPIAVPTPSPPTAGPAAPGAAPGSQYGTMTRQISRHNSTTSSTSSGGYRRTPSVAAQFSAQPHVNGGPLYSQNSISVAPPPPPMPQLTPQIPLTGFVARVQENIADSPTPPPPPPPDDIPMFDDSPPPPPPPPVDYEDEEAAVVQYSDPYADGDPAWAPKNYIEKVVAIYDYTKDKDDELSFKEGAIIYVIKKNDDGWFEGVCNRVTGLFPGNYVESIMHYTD

In the case of “p85 (regulatory subunit of class I PI3K), endogenous in mouse fibroblasts (from UniProt P26450 1-724) (natural protein)”, the percent of total p85 associated with Abi1 immunoprecipitates is reported as 1%.
